Measurements published in the RNAGym collection of RNA variant scans (doi:10.7554/elife.80360).

B1: Hairpin Ribozyme (parent)
chain: GUCCUCUUUCACGUGCGCGUGAAAGAGAGAAGUGAACCAGAGAAACACACGUUGUGGUAUAUUACCUGGUA

Variants of: B1
Experiment: self-cleavage, relative activity (ratio to wild type); higher = more cleavage; co-transcriptional

Variant	self-cleavage
GUCCUCUUUCACGUGCGCGUGAAAGAGAGAAGUGAACCAGAGAAACACACGUUGUGGUAUAUUAGAUGGUA [C65G C66A]	0.142
GUCCUCUUUCACGUGCGCGUGAAAGAGAGAAGUGAACCAGAGAAACACACGUUGUGGUAUAUUAACUCGUA [C65A G68C]	0.224
GUCCUCUUUCACGUGCGCGUGAAAGAGAGAAGUGAACCAGAGAAACACACGUUGUGGUAUAUUAACUUGUA [C65A G68U]	0.292
GUCCUCUUUCACGUGCGCGUGAAAGAGAGAAGUGAACCAGAGAAACACACGUUGUGGUAUAGUACCUGUUA [U62G G69U]	0.165
GUCCUCUUUCACGUGCGCGUGAAAGAGAGAAGUGAACCAGAGAAACACACGUUGUGGUAUAGUACCUGCUA [U62G G69C]	0.217
GUCCUCUUUCACGUGCGCGUGAAAGAGAGAAGUGAACCAGAGAAACACACGUUGUGGUAUAGUACCUGAUA [U62G G69A]	0.0955
GUCCUCUUUCACGUGCGCGUGAAAGAGAGAAGUGAACCAGAGAAACACACGUUGUGGUAUAUGACCUAGUA [U63G G68A]	0.281
GUCCUCUUUCACGUGCGCGUGAAAGAGAGAAGUGAACCAGAGAAACACACGUUGUGGUAUAUGACCUUGUA [U63G G68U]	0.225
GUCCUCUUUCACGUGCGCGUGAAAGAGAGAAGUGAACCAGAGAAACACACGUUGUGGUAUAUUUCCUGUUA [A64U G69U]	0.281
GUCCUCUUUCACGUGCGCGUGAAAGAGAGAAGUGAACCAGAGAAACACACGUUGUGGUAUAUAACCGGGUA [U63A U67G]	0.118
GUCCUCUUUCACGUGCGCGUGAAAGAGAGAAGUGAACCAGAGAAACACACGUUGUGGUAUAUAACCCGGUA [U63A U67C]	0.14
GUCCUCUUUCACGUGCGCGUGAAAGAGAGAAGUGAACCAGAGAAACACACGUUGUGGUAUAUAACCAGGUA [U63A U67A]	0.208
GUCCUCUUUCACGUGCGCGUGAAAGAGAGAAGUGAACCAGAGAAACACACGUUGUGGUAUAUCGCCUGGUA [U63C A64G]	0.0805
GUCCUCUUUCACGUGCGCGUGAAAGAGAGAAGUGAACCAGAGAAACACACGUUGUGGUAUACUACCGGGUA [U62C U67G]	0.265
GUCCUCUUUCACGUGCGCGUGAAAGAGAGAAGUGAACCAGAGAAACACACGUUGUGGUAUAUCACGUGGUA [U63C C66G]	0.244
GUCCUCUUUCACGUGCGCGUGAAAGAGAGAAGUGAACCAGAGAAACACACGUUGUGGUAUAUCACUUGGUA [U63C C66U]	0.165
GUCCUCUUUCACGUGCGCGUGAAAGAGAGAAGUGAACCAGAGAAACACACGUUGUGGUAUAUUGCUUGGUA [A64G C66U]	0.109
GUCCUCUUUCACGUGCGCGUGAAAGAGAGAAGUGAACCAGAGAAACACACGUUGUGGUAUAUUGCAUGGUA [A64G C66A]	0.211
GUCCUCUUUCACGUGCGCGUGAAAGAGAGAAGUGAACCAGAGAAACACACGUUGUGGUAUAUUUCCUGGCA [A64U U70C]	0.0932

Variant	self-cleavage
GUCCUCUUUCACGUGCGCGUGAAAGAGAGAAGUGAACCAGAGAAACACACGUUGUGGUAUAUACCCUGGUA [U63A A64C]	0.0838
GUCCUCUUUCACGUGCGCGUGAAAGAGAGAAGUGAACCAGAGAAACACACGUUGUGGUAUAUUAACUGGUG [C65A A71G]	0.93
GUCCUCUUUCACGUGCGCGUGAAAGAGAGAAGUGAACCAGAGAAACACACGUUGUGGUAUAUUAACUGGUU [C65A A71U]	0.7
GUCCUCUUUCACGUGCGCGUGAAAGAGAGAAGUGAACCAGAGAAACACACGUUGUGGUAUAUUAACUGGGA [C65A U70G]	0.562
GUCCUCUUUCACGUGCGCGUGAAAGAGAGAAGUGAACCAGAGAAACACACGUUGUGGUAUAUUAACUGGCA [C65A U70C]	0.692
GUCCUCUUUCACGUGCGCGUGAAAGAGAGAAGUGAACCAGAGAAACACACGUUGUGGUAUAUAAUCUGGUA [U63A C65U]	0.0803
GUCCUCUUUCACGUGCGCGUGAAAGAGAGAAGUGAACCAGAGAAACACACGUUGUGGUAUAUUCCCUGGAA [A64C U70A]	0.4
GUCCUCUUUCACGUGCGCGUGAAAGAGAGAAGUGAACCAGAGAAACACACGUUGUGGUAUAUGACCUGGUC [U63G A71C]	0.565
GUCCUCUUUCACGUGCGCGUGAAAGAGAGAAGUGAACCAGAGAAACACACGUUGUGGUAUAUGACCUGGUG [U63G A71G]	0.226
GUCCUCUUUCACGUGCGCGUGAAAGAGAGAAGUGAACCAGAGAAACACACGUUGUGGUAUAUUGACUGGUA [A64G C65A]	0.139
GUCCUCUUUCACGUGCGCGUGAAAGAGAGAAGUGAACCAGAGAAACACACGUUGUGGUAUAUUGUCUGGUA [A64G C65U]	0.215
GUCCUCUUUCACGUGCGCGUGAAAGAGAGAAGUGAACCAGAGAAACACACGUUGUGGUAUAUUGGCUGGUA [A64G C65G]	0.101
GUCCUCUUUCACGUGCGCGUGAAAGAGAGAAGUGAACCAGAGAAACACACGUUGUGGUAUAUCACCUGGCA [U63C U70C]	0.19
GUCCUCUUUCACGUGCGCGUGAAAGAGAGAAGUGAACCAGAGAAACACACGUUGUGGUAUAUAACCUGGGA [U63A U70G]	0.151
GUCCUCUUUCACGUGCGCGUGAAAGAGAGAAGUGAACCAGAGAAACACACGUUGUGGUAUAGUACAUGGUA [U62G C66A]	0.207
GUCCUCUUUCACGUGCGCGUGAAAGAGAGAAGUGAACCAGAGAAACACACGUUGUGGUAUAUGACCGGGUA [U63G U67G]	0.134
GUCCUCUUUCACGUGCGCGUGAAAGAGAGAAGUGAACCAGAGAAACACACGUUGUGGUAUAUGACCUGGAA [U63G U70A]	0.0931
GUCCUCUUUCACGUGCGCGUGAAAGAGAGAAGUGAACCAGAGAAACACACGUUGUGGUAUAUAACCUGGUG [U63A A71G]	0.221
GUCCUCUUUCACGUGCGCGUGAAAGAGAGAAGUGAACCAGAGAAACACACGUUGUGGUAUAUAACCUGGUU [U63A A71U]	0.182
